# Experimental data from patent US20240294610A1, “PEPTIDE FOR TREATING AGE-RELATED MACULAR DEGENERATION” (DAIICHI SANKYO COMPANY, LIMITED, priority 2016, published 2024).
# What was measured:
# HTRA1 (cat) = target: T1, HTRA1 (cat) (Homo sapiens, UniProt Q92743); test: HTRA1 (cat) inhibitory activity using peptide substrate H2-Opt (Example 3-1); format: biochemical; details: method of (3-1); peptide 1.875 to 1,000 nM
# T1 construct: The protease domain (158Gly to 373Lys), except for the N-terminal domain and the PDZ domain, of human HTRA1 (Q92743); made in house; host or cells: E. coli BL21 (DE3)
# Procedure: The protease domain (158Gly to 373Lys), except for the N-terminal domain and the PDZ domain, of human HTRA1 (Q92743) was used as HTRA1 (cat) to construct a HTRA1 (cat) expression vector. The desired DNA fragment was amplified by PCR ((94° C. for 15 sec, 60° C. for 30 sec, and 68° C. for 45 sec)×30 cycles) with a human HTRA1-inserted plasmid (GeneCopoeia, Inc.; GC-M0558) as a template using the following primers and KOD-plus-(Toyobo Co., Ltd.).
# A substrate peptide H2-Opt (Mca-IRRVSYSFK(Dnp)K) (Peptide Institute, Inc.: SEQ ID NO: 54, FIG. 8) was dissolved at 10 mM in DMSO, diluted with an assay buffer (50 mM borate and 150 mM NaCl, pH 8.5), and used at a final concentration of 10 μM. HTRA1 (HTRA1 (cat) or HTRA1 (full)) and each HTRA1-inhibiting peptide diluted with an assay buffer were mixed at 25 μL each and reacted at 37° C. for 20 minutes. Then, 50 μL of the substrate diluted with an assay buffer was added thereto. A fluorescent signal (excitation at 328 nm/emission at 393 nm) was measured using Enspire (PerkinElmer, Inc.). […]
# The substrate peptide decomposition rate of the HTRA1-inhibiting peptide at each concentration was calculated. When the decomposition rate at an inhibitor concentration of 0 nM was defined as 100%, the HTRA1 (cat) and HTRA1 (full) inhibitory activity of each HTRA1-inhibiting peptide was evaluated (FIGS. 2 and 3).
# [1] = tested on: retinal damage induced by light exposure; test: Rat model of retinal damage induced by light exposure; format: in vivo
# Procedure: Rat models of retinal damage induced by light exposure are models that induce the cell death of retinal photoreceptor cells by light exposure and are universally used as model animals of retinal degeneration (Daniel T. Organisciak et al., (1996) Invest Ophthalmol Vis Sci. Vol. 37 (No. 11): p. 2243-2257). A 0.5% (W/V) tropicamide-0.5% phenylephrine hydrochloride ophthalmic solution was ocularly instilled under adaptation to darkness to rats adapted to darkness for 72 hours. Then, the rats were exposed to white light of 5500 Lux for 3 hours. The rats thus exposed were adapted again to darkness for about 24 hours and then raised for 2 days under light-dark conditions of ordinary raising. After euthanasia, the eyeballs were excised and fixed by dipping in a 3.7% (W/V) formaldehyde-0.5 to 1% (W/V) methanol-0.2% (W/V) picric acid fixative for 24 hours or longer. After paraffin embedding, thin sliced sections were prepared. The sections were stained with hematoxylin-eosin, and a nucleus count in an outer nuclear layer at the cross-section of the retina was determined to evaluate retinal damage. […] Immediately before light exposure of rats, 5 micro L of HTRA1-inhibiting peptide […] having a concentration of 0.04 mg/mL or 0.2 mg/mL was intravitreally administered under anesthesia. n=4 for a normal saline administration group, and n=5 for the other groups. […] The retinal protective effects of three HTRA1-inhibiting peptides prepared in Example 6 were evaluated using the rat models of retinal damage induced by light exposure, constructed in Example (5-1). The operation followed Example 5. n=6 for all groups.
# ARPE-19 cells = test: VEGF mRNA induction test using human retinal pigment epithelial cell ARPE-19; format: cell-based; details: H2O2 500 μM, normal human serum complement 25%, HTRA1 1 μM, peptide 1 μM, 4 hours
# Procedure: ARPE-19 cells were cultured until confluent in 12 mm Transwell with 0.4 μm Pore Polyester Membrane Insert, Sterile (Corning Inc.) under conditions of 37° C. and 5% CO2 using a DMEM/F-12 medium (Wako Pure Chemical Industries, Ltd.) containing 10% fetal bovine serum (FBS) and penicillin-streptomycin (Thermo Fisher Scientific Inc.). Then, the cells were cultured in FBS-free DMEM/F-12 for 5 days. H2O2 (final concentration: 500 μM) was added to the upper and lower layers of the chamber, and normal human serum complement (Quidel Corp.) (final concentration: 25%) was added to the upper layer of the chamber. […] Four hours later, the culture supernatant was removed, and the cells were washed with PBS. Then, mRNA was extracted using SuperPrep™ Cell Lysis & RT Kit for qPCR (Toyobo Co., Ltd.) and subjected to reverse transcription reaction. The mRNA level of VEGF was quantitatively analyzed by TaqMan Gene Expression Assays (Hs000900055_m1 and Hs02786624_g1; Thermo Fisher Scientific Inc.) using 7900HT Fast Real-Time PCR System (Applied Biosystems, Inc.). GAPDH was used in the correction of the mRNA level.
# [2] = tested on: human umbilical vein endothelial cells (HUVEC); test: HUVEC migration test; format: cell-based; details: 300 nM peptide in EGM growth medium; 2 hours
# Procedure: HUVEC (Kurabo Industries Ltd.) was cultured for 18 hours under conditions of 37° C. and 5% CO2 in a medium (0.1% BSA-containing serum-free EGM) in which EBM™-2 basal medium (Lonza Walkersville, Inc.) containing 0.1% BSA was supplemented with EGM™-2 SingleQuots™ additive factor set except for serum and VEGF. Then, the cells were adjusted to 4×10^5 cells/mL with 0.1% BSA-containing serum-free EGM. 4×10^5 cells/mL of the HUVEC suspension was added at 50 μL/well to the upper layer of a chamber of Corning FluoroBlok HTS 96 Well Multiwell Permeable Support System with 3.0 μm High Density PET Membrane (Corning Inc.) having a gelatin-coated membrane. Then, each sample described below (medium 1, 2 or 3) was added at 210 μL/well to the lower layer of the chamber (n=3). […]
# FluoroBlok HTS 96 Well Multiwell Support System supplemented with the cells and the sample was incubated for 2 hours under conditions of 37° C. and 5% CO2. […] The fluorescence intensity (excitation wavelength/fluorescence wavelength: 485 nm/535 nm) of each well was measured using a plate reader (ARVO-MX, PerkinElmer, Inc.), and the migrated cells were counted for each well according to the following expression.
# Migrated cells=Mean fluorescence intensity of wells containing HUVEC (n=3)−Mean fluorescence intensity of blank wells (n=3).
# RPE cells = test: Rabbit retinal damage model by loading with high-fat diet containing hydroquinone (HFD-HQ); format: in vivo; details: HFD-HQ-loaded 3-year-old rabbits; 50 μL of 40 mg/mL intravitreally after 2 months of feeding; evaluated after 4 months
# From the text: Retinal damage models prepared using high-fat diet (HFD) and hydroquinone (HQ) are models in which oxidative stress is induced by a pro-oxidant to cause retinal damage. These models have been reported only for mice (Diego G. Espinosa-Heidmann et al., (2006) Invest Ophthalmol Vis Sci., Vol. 47 (No. 2): p. 729-737). Accordingly, 3-year-old JW rabbits were fed for 4 months with RC4 (Oriental Yeast Co., Ltd.) diet containing 1.5% (W/V) coconut oil-0.25% (W/V) cholesterol-1.5% (W/V) peanut oil-2.4% (W/V) hydroquinone (HFD-HQ) to construct rabbit retinal damage models. After euthanasia, the eyeballs were excised, and the anterior segment of the eye was removed by an external incision of about 5 mm from the corneal limbus. The vitreous body was further separated. Then, retina-choroid-sclera was fixed by dipping in 4% (W/V) paraformaldehyde fixative for 24 hours or longer. […] The stained choroid was observed under a fluorescence microscope (BZ-9000; Keyence Corp.). The area of stained retinal pigment epithelial (RPE) cells was determined to evaluate RPE cell damage.
# The retinal protective effect of the HTRA1-inhibiting peptide H308 prepared in Example 1 was evaluated using the rabbit models. […]
# After 4 months from the start of feeding, RPE cell hypertrophy in the model animals was evaluated. […]
# T1 sequence (Q92743 158-373): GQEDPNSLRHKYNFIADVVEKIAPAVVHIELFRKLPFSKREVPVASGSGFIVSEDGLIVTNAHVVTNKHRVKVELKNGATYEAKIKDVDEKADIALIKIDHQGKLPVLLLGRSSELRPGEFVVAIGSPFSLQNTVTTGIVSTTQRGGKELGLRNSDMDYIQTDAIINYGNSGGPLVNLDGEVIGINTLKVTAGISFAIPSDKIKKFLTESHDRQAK
molecule,measurement,setting,value
"wild-type SPINK2: human serine protease inhibitor Kazal-type 2, control, amino acid sequence SEQ ID NO: 1 (FIG. 13) (protein, listed as Homo sapiens) DPQFGLFSKYRTPNCSQYRLPGCPRHFNPVCGSDMSTYANECTLCMKIREGGHNIKIIRNGPC",HTRA1 (cat) inhibitory activity (decomposition rate of peptide substrate),HTRA1 (cat),no HTRA1 inhibitory activity
"H308_D1G_S16A: H308 derivative, 1Asp substituted by Gly and 16Ser by Ala, SEQ ID NO: 24 (FIG. 36) (protein, peptide H308_D1G_S16A) GPQFGLFSKYRTPNCADHAGMACVALYEPVCGSDMSTYENECVLCMKIREGGHNIKIIRNGPCGG",nucleus count in an outer nuclear layer at the cross-section of the retina,"[1]; 0.2 and 1 μg/eye, n=6",suppressed decrease in nucleus count in an outer nuclear layer
same,expression of VEGF mRNA,ARPE-19 cells,confirmed to suppress the expression of VEGF
same,migration of HUVEC induced in the serum-containing medium,[2],suppressive effect on the migration of HUVEC
"H322AT_D1G_S16A: peptide derivative, amino acid sequence SEQ ID NO: 29 (FIG. 41) (protein, peptide H322AT_D1G_S16A) GPQFGLFSKYRTPNCAQHEGMACYALYEPVCGSDMSTYANECTLCMKIREGGHNIKIIRNGPCGG",nucleus count in an outer nuclear layer at the cross-section of the retina,"[1]; 0.2 and 1 μg/eye, n=6",suppressed decrease in nucleus count in an outer nuclear layer
"H321AT_D1G_S16A: peptide derivative, amino acid sequence SEQ ID NO: 28 (FIG. 40) (protein, peptide H321AT_D1G_S16A) GPQFGLFSKYRTPNCADFDGMACYAFYEPVCGSDMSTYANECTLCMKIREGGHNIKIIRNGPCGG",nucleus count in an outer nuclear layer at the cross-section of the retina,"[1]; 0.2 and 1 μg/eye, n=6",suppressed decrease in nucleus count in an outer nuclear layer
"H308: SPINK2 mutant HTRA1-inhibiting peptide, amino acid sequence SEQ ID NO: 9 (FIG. 21) (protein, peptide H308) DPQFGLFSKYRTPNCSDHAGMACVALYEPVCGSDMSTYENECVLCMKIREGGHNIKIIRNGPCGG","hypertrophy of RPE cells, average area",RPE cells,exhibited a suppressive effect on the hypertrophy of RPE cells
same,"hypertrophy of RPE cells, number of RPE cells having a cell area of 1500 μm^2 or larger",RPE cells,exhibited a suppressive effect on the hypertrophy of RPE cells
same,nucleus count in an outer nuclear layer at the cross-section of the retina,[1]; 5 micro L of 0.04 mg/mL or 0.2 mg/mL intravitreally immediately before light exposure,effect of suppressing decrease in nucleus count in an outer nuclear layer was confirmed
